{
  "source": "patent US20150284813A1",
  "target": "bioluminescent capsule containing ALuc16 in its frame structure (DEVD sequence as cargo)",
  "sequence (chain, as listed by the source, form in doubt)": "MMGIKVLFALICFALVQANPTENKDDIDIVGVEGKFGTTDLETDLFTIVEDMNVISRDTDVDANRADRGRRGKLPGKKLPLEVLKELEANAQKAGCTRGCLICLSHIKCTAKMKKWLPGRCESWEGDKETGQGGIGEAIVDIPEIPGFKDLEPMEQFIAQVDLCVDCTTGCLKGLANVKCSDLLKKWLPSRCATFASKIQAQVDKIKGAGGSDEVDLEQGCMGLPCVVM",
  "assay": "cell-based or functional assay",
  "data": [
    {"substance": "Caspase-3 (enzyme)", "values": [
      {"measurement": "luminescence intensity of COS-7 cells with versus without STS (two minutes), LAS-4000 image", "result": 2, "unit": "folds"}
    ]}
  ]
}
